Measured values as given in the DeepSol protein solubility set.

Test: soluble on expression in E. coli; label from the status in PepcDB or PDB records

Sequence | soluble on expression in E. coli
MSLDAHNFFKAGPYAPLAARMRPQSLDEVVGQRHLLDSGKPLQRLIAGSGDASVILYGPPGTGKTTIASLISAGTGHEFVGLSALNSGVKEIREVIDQARRNLIHGKRTVLFIDEVHRFSKTQQDALLAAVENRTVLLVAATTENPSFSVVAPLLSRSLILQLKPLTHDDIKTVLLHALQDKRGLDNRITISDEALEQLVLLSGGDARRSLTYLEAASESLADGEELTPEIIRHNVDKAIVRYDRDGDQHYDVVSAFIKSMRGSDVDAALHYLARMIDAGEDPRFIARRLVIHASEDVGMADPQALSVAVAASQAVALIGMPEARINLAQATIHLATAPKSNAVITAIDAALADVKQGKTGPVPAHLRDGHYAGAKQLGNAVGYKYPHDDPRGIVEQQYIPNGLEDVVYYRPSEHGAEQRIESYLGKLRRIVRGQREGHHHHHH | soluble
MGSDKIHHHHHHMTAVNIWKPEDNIPREILAILSKPHPNYQLAFLNIIQLLKTQRRTGWVDHGIDPCESISDHMYRMGLTTMLITDKNVDRNKCIRIALVHDFAESLVGDITPNDPMTKEEKHRREFETVKYLCESIIRPCSESASREILDDWLAYEKQTCLEGRYVKDIDKYEMLVQCFEYEQKYNGKKDLKQFLGAINDIKTDEVKKWTQSLLEDRQAFFDSLKE | not soluble
MGSDKIHHHHHHENLYFQGMIESIQELLQKEAQAVLNIPVTDAYEKAVELIVEQIHRKKGKLVTSGMGKAGQIAMNIATTFCSTGIPSVFLHPSEAQHGDLGILQENDLLLLISNSGKTREIVELTQLAHNLNPGLKFIVITGNPDSPLASESDVCLSTGHPAEVCTLGMTPTTSTTVMTVIGDILVVQTMKRTEFTIEEYSKRHHGGYLGEKSRKLCVK | soluble
MVLSHAVSESDVSVHSTFASRYVRTSLPRFKMPENSIPKEAAYQIINDELMLDGNPRLNLASFVTTWMEPECDKLIMSSINKNYVDMDEYPVTTELQNRCVNMIAHLFNAPLEEAETAVGVGTVGSSEAIMLAGLAFKRKWQNKRKAEGKPVDKPNIVTGANVQVCWEKFARYFEVELKEVKLSEGYYVMDPQQAVDMVDENTICVAAILGSTLNGEFEDVKLLNDLLVEKNKETGWDTPIHVDAASGGFIAPFLYPELEWDFRLPLVKSINVSGHKYGLVYAGIGWVIWRNKEDLPEELIFHINYLGADQPTFTLNFSKGSSQVIAQYYQLIRLGHEGYRNVMENCRENMIVLREGLEKTERFNIVSKDEGVPLVAFSLKDSSCHTEFEISDMLRRYGWIVPAYTMPPNAQHITVLRVVIREDFSRTLAERLVIDIEKVMRELDELPSRVIHKISLGQEKSESNSDNLMVTVKKSDIDKQRDIITGWKKFVADRKKTSGIC | soluble
TPAGSFGLEFSFSYQKFTASFQPNYRRQTYSYSNTYEWHDANNVQNYLQLTYNQKTQLDYIEFPLFIRYDIISGAFKPFVQAGFYYAILNSATKQLNIEGVDHSGGTSRSFTEPVTIIGADDLFINSSIGAALGLGTSYKVGNIRLILDATYRMGLNNISNVQNRYISNSLSGAGDVSDDLKLNNITFSFGCLFPMKFLISPSHKAVD | not soluble
MGSDKIHHHHHHMAKGSKGFIVSIMGPVVDVKFPEEELPDIYNALEVVNPQTGQKVVLEVEQLIGDGVVRTVAMDSTDGLTKGLEVVDTGAPITAPVGKEVLGRILNVIGEPVDEAGEIKAKERWPIHRPAPELVEQSTEIEILETGIKVIDLLAPFPKGGKIGFFGGAGVGKTVLVMELIRNIAIEHKGFSVFAGVGERTREGNELWLEMQESGVLGNTVLVFGQMNEPPGARFRVALTALTIAEYFRDVEGRDVLLFIDNIFRFVQAGSEVSALLGRMPSAVGYQPTLATDMGELQERITSTRRGSITSVQAIYVPADDITDPAPATTFAHLDATVVLSRRIAELGLYPAVDPLDSSSKILDPAIVGREHYEVARGVQEVLQRYKDLQDIIAILGVEELSPEDKLVVHRARRIQRFLSQPFHVAERFTGRPGRYVPIEETIRGFKEILDGKLDDVPEQAFLMAGNIDEVKERAKEMRS | not soluble
MLETNVDQKSFKFKIVLLGEGCVGKSSLVLRFVENKFSCKHLSTIQASFQNKTVNVEDCQADLHIWDTAGQEKYHALGPIYYRGSNGVLLVFDITDRKSFEKVKNWVLEIKTCLGNTAEILIVGNKIDLEEERQVTRQDAEAYAESEGALYMETSAQDNVGISDAFESLTAKMIEHSRTRSTEPPSTNRSIRLIDNDEAERSKKCCR | not soluble
MKELNDLEKKYNAHIGVYALDTKSGKEVKFNSDKRFAYASTSHAINSAILLEQVPYNKLNKKVHINKDDIVAYSPILEKYVGKDITLKALIEASMTYSDNTANNKIIKEIGGIKKVKQRLKELGDKVTNPVRYEIELNYYSPKSKKDTSTPAAFGKTLNKLIANGKLSKENKKFLLDLMLNNKSGDTLIKDGVPKDYKVADKSGQAITYASRNDVAFVYPKGQSEPIVLVIFTNKDNKSDKPNDKLISETAKSVMKEF | soluble
MNIEQLSQSLEHMANQAATLDRQRGEHHVPLFDERLFSCRSRLLTPCVKEAKSTLDAIIREQNENKLTALRAEYLTERLVAQIGAIQREISTTKIRKNEIKHSSHFRKPINVLYQELAQHQEWARRLREMVLEKERAVETAPSFMRAEAQKVLLATEQRLARCEAALLKLENQITHREKHQ | soluble
MGSDKIHHHHHHMHIADITMFYAPASGGVRTYLEAKRNRLAKLPGVTSSLLVPGAYHRSHGSIHEVPAPPLPFSQGYRFPLKRRGWQRELHRLAPDLIEAGDPYVTAWAALDAGRALDVPVVGFYHSDLPRLIGNRLGNWTRAALDRYVRNLYGHCDRVLAPSRVIADRLQTLGLDNVAVQPLGVDLTTFSPQRRQFAFRQRLGLDDDTRLLIFVGRGSREKNLSVLLDTARHLGKGYHLVLIGPQMPQRVPDNVSVIGRYTATADVADWLASSDILLHAGTQETFGLVALEAMASGIPVVAARAGALAENVPLGCGRLCEPHSAQDMARAVRELCADAPEEQGRRARQHVERHHDWDIVVSSLMHHYRELTGQRVNTESLQHG | not soluble
LDIQMTQSPSSLSASLGERVSLTCRASQEISGYLYWLQQKPDGTIKRLIYAGSTLDSGVPKRFSGSRSGSDYSLTISSLESEDFADYYCLQYASYPRTFGGGTKVEIKRTVAAPSVFIFPPSDEQLKSGTASVVCLLNNFYPREAKVQWKVDNALQSGNSQESVTEQDSKDSTYSLSSTLTLSKADYEKHKVYACEVTHQGLSSPVTKSFNRGECGAGA | soluble
MSLKYDWILFDADETLFHFDAFKGMQLMFARKGVEFTEQDFHQYQEVNKPLWVDYQNGDITAAQLKHTRFAGWAEKLNTTTDELNSAFLQAMADICTLLPGAMELMQALQGKARLGIITNGFTELQDVRLAKTGMTDFFDQIVISEEVGIAKPDAGIFAHALERMGNPTKSRVLMVGDNPHSDILGGLNFGIETCWLNVHQHPKPDGITPHYEVTSLHELREILLAEGHHHHHH | soluble
MGLISAAVGAVGGGLADQWLEVIEAGDMGEGIVLAKGVAVRTDKRNTNKKGSSDVVSNGSIIHVNQNQFMMLVDGGKIVDYTAEPGYFKVENSASPSLFGGQFGDALKETFSRFKFGGTTPMKQEVFYVNLQEIKGIKFGTPNPLQYFDNFYNAELFLRTFGNYSIKITDPIKFFKEACPRDAENVHIDEINEQYLSEFLEALQAAISQMSMEGERISFIPSKGTVLSKHMSEILDDSWKELRGMEVLSVGIASISYDDESKELINMRNKGAMLGDPGVREGYVQGSIARGMEAAGSNQAGAGMAFMGMGMGMNAAGGFMGQASQTNMQQMQMNQAAQRAAQGAGQQQGAGAKAAGEWFCTECGHKNTGKFCAECGTPKPQGLEHHHHHH | soluble
MLPCLNEEESLPAVLAAIPAGYRALVVDNNSTDDTATVAARHGAQVVVEPRPGYGSAVHAGVLAATTPIVAVIDADGSMDAGDLPKLVAELDKGADLVTGRRRPVAGLHWPWVARVGTVVMSWRLRTRHRLPVHDIAPMRVARREALLDLGVVDRRSGYPLELLVRAAAAGWRVVELDVSYGPRTGGKSKVSGSLRGSIIAILDFWKVISLEHHHHHH | not soluble
SPCDTNWRYYGDSCYGFFRHNLTWEESKQYCTDMNATLLKIDNRNIVEYIKARTHLIRWVGLSRQKSNEVWKWEDGSVISENMFEFLEDGKGNMNCAYFHNGKMHPTFCENKHYLMCERKAG | soluble
